{"source": "patent CN116640222A", "key": {"DNP-BSA [1]": {"target": "DNP-BSA (UniProt P02769)", "sequence (P02769 25-607 limits assumed, form in doubt)": "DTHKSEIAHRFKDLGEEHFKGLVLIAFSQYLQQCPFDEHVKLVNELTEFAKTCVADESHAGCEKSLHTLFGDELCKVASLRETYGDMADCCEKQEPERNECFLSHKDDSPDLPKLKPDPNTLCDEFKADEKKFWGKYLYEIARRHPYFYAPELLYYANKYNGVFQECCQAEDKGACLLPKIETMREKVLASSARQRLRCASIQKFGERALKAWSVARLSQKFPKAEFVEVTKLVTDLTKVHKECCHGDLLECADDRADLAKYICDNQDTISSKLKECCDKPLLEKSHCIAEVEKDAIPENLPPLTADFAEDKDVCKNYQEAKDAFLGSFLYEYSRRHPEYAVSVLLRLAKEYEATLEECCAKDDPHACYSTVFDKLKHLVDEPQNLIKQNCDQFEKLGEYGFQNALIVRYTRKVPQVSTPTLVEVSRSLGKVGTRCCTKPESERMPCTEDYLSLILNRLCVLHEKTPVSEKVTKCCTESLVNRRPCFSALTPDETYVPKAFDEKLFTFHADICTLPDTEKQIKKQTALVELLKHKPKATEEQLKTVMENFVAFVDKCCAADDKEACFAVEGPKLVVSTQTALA", "assay": "BLI, antibody captured on AMC sensor, DNP-BSA in solution"}, "DNP-BSA [2]": {"target": "DNP-BSA (UniProt P02769)", "assay": "indirect ELISA, DNP-BSA coated 3 ug/ml, antibody at 125 ng/ml"}, "DNP-BSA [3]": {"target": "DNP-BSA (UniProt P02769)", "assay": "indirect ELISA, DNP-BSA coated 3 ug/ml, antibody at 62.5 ng/ml"}, "DNP-BSA [4]": {"target": "DNP-BSA (UniProt P02769)", "assay": "indirect ELISA, DNP-BSA coated 3 ug/ml, antibody at 31.25 ng/ml"}, "DNP-BSA [5]": {"target": "DNP-BSA (UniProt P02769)", "assay": "indirect ELISA, DNP-BSA coated 3 ug/ml, antibody at 7.813 ng/ml"}, "DNP-BSA [6]": {"target": "DNP-BSA (UniProt P02769)", "assay": "indirect ELISA, DNP-BSA coated 3 ug/ml, antibody at 15.625 ng/ml"}, "DNP-BSA [7]": {"target": "DNP-BSA (UniProt P02769)", "assay": "indirect ELISA on DNP-BSA, antibody stored 21 days at 4 C, at 125 ng/ml"}, "DNP-BSA [8]": {"target": "DNP-BSA (UniProt P02769)", "assay": "indirect ELISA on DNP-BSA, antibody stored 21 days at 37 C, at 125 ng/ml"}, "DNP-BSA [9]": {"target": "DNP-BSA (UniProt P02769)", "assay": "indirect ELISA on DNP-BSA, antibody stored 21 days at -80 C, at 125 ng/ml"}, "DNP-BSA [10]": {"target": "DNP-BSA (UniProt P02769)", "assay": "indirect ELISA on DNP-BSA, antibody stored 21 days at 4 C, at 15.625 ng/ml"}, "DNP-BSA [11]": {"target": "DNP-BSA (UniProt P02769)", "assay": "indirect ELISA on DNP-BSA, antibody stored 21 days at 37 C, at 15.625 ng/ml"}, "DNP-BSA [12]": {"target": "DNP-BSA (UniProt P02769)", "assay": "indirect ELISA on DNP-BSA, antibody stored 21 days at -80 C, at 15.625 ng/ml"}}, "data": [{"molecule": "对照 (antibody)", "values": [{"measurement": "Kd", "setting": "DNP-BSA [1]", "value": 2.57, "unit": "nM"}, {"measurement": "koff", "setting": "DNP-BSA [1]", "value": 0.00055, "unit": "s⁻¹"}, {"measurement": "kon", "setting": "DNP-BSA [1]", "value": 214000, "unit": "M⁻¹ s⁻¹"}, {"measurement": "OD (450 nm, ref 630 nm)", "setting": "DNP-BSA [2]", "value": 2.37, "unit": "OD"}, {"measurement": "OD (450 nm, ref 630 nm)", "setting": "DNP-BSA [3]", "value": 1.53, "unit": "OD"}, {"measurement": "OD (450 nm, ref 630 nm)", "setting": "DNP-BSA [4]", "value": 0.949, "unit": "OD"}, {"measurement": "OD (450 nm, ref 630 nm)", "setting": "DNP-BSA [5]", "value": 0.229, "unit": "OD"}, {"measurement": "OD (450 nm, ref 630 nm)", "setting": "DNP-BSA [6]", "value": 0.375, "unit": "OD"}]}, {"molecule": "Anti-DNP-6G1mut2 (antibody, mouse IgG1, V domains shown) VH: EVQLQESGPSLVKPSQTLSLTCSVTGDSIITGYWNWIRKFPGNKLEFMGYISYSGRTYYNPSLKSRVSITRDTSKNQYYLQLSSVTTEDAATYYCTRWTTAYFGIDSWGQGISVTVSS VL: QAVVTQESALTTSPGGTVILTCRSSTGAVTTSNNANWVQEKPDHLFTGLIGGTSNRAPGVPVRFSGSLIGDKAALTITGAQTEDDAMYFCALWYSTHYVFGGGTKVTVLG", "values": [{"measurement": "Kd", "setting": "DNP-BSA [1]", "value": 0.287, "unit": "nM"}, {"measurement": "koff", "setting": "DNP-BSA [1]", "value": 0.00039, "unit": "s⁻¹"}, {"measurement": "kon", "setting": "DNP-BSA [1]", "value": "1.36e+06", "unit": "M⁻¹ s⁻¹"}, {"measurement": "OD (450 nm, ref 630 nm)", "setting": "DNP-BSA [2]", "value": 2.28, "unit": "OD"}, {"measurement": "OD (450 nm, ref 630 nm)", "setting": "DNP-BSA [3]", "value": 2.17, "unit": "OD"}, {"measurement": "OD (450 nm, ref 630 nm)", "setting": "DNP-BSA [4]", "value": 1.61, "unit": "OD"}, {"measurement": "OD (450 nm, ref 630 nm)", "setting": "DNP-BSA [5]", "value": 0.516, "unit": "OD"}, {"measurement": "OD (450 nm, ref 630 nm)", "setting": "DNP-BSA [6]", "value": 0.987, "unit": "OD"}]}, {"molecule": "Anti-DNP-6G1mut1 (antibody, mouse IgG1, V domains shown) VH: EVQLQESGPSLVKPSQTLSLTCSVTGDSIITGYWNWIRKFPGNKLEFMGYISYSGRTYYNPSLKSRVSITRDTSKNQYYLQLSSVTTEDAATYYCTRWTTAYFGIDSWGQGISVTVSS VL: QAVVTQESALTTSPGGTVILTCRSSTGAVTTSNNANWVQEKPDHLFTGLIGGTSNRAPGVPVRFSGSLIGDKAALTITGAQTEDDAMYFCAIWYSTHYVFGGGTKVTVLG", "values": [{"measurement": "Kd", "setting": "DNP-BSA [1]", "value": 0.168, "unit": "nM"}, {"measurement": "koff", "setting": "DNP-BSA [1]", "value": 0.00042, "unit": "s⁻¹"}, {"measurement": "kon", "setting": "DNP-BSA [1]", "value": "2.5e+06", "unit": "M⁻¹ s⁻¹"}, {"measurement": "OD (450 nm, ref 630 nm)", "setting": "DNP-BSA [2]", "value": 2.25, "unit": "OD"}, {"measurement": "OD (450 nm, ref 630 nm)", "setting": "DNP-BSA [3]", "value": 1.95, "unit": "OD"}, {"measurement": "OD (450 nm, ref 630 nm)", "setting": "DNP-BSA [4]", "value": 1.69, "unit": "OD"}, {"measurement": "OD (450 nm, ref 630 nm)", "setting": "DNP-BSA [5]", "value": 0.504, "unit": "OD"}, {"measurement": "OD (450 nm, ref 630 nm)", "setting": "DNP-BSA [6]", "value": 0.96, "unit": "OD"}, {"measurement": "OD (450 nm, ref 630 nm)", "setting": "DNP-BSA [7]", "value": 2.21, "unit": "OD"}, {"measurement": "OD (450 nm, ref 630 nm)", "setting": "DNP-BSA [8]", "value": 2.26, "unit": "OD"}, {"measurement": "OD (450 nm, ref 630 nm)", "setting": "DNP-BSA [9]", "value": 2.24, "unit": "OD"}, {"measurement": "OD (450 nm, ref 630 nm)", "setting": "DNP-BSA [10]", "value": 0.991, "unit": "OD"}, {"measurement": "OD (450 nm, ref 630 nm)", "setting": "DNP-BSA [11]", "value": 0.985, "unit": "OD"}, {"measurement": "OD (450 nm, ref 630 nm)", "setting": "DNP-BSA [12]", "value": 0.977, "unit": "OD"}]}]}
